The record followed here is PMC8568920, “Serum apolipoprotein A-I potentiates the therapeutic efficacy of lysocin E against Staphylococcus aureus” (Nature Communications, 2021).

Assay [1] has as its target biotinylated lysocin E derivative, Bu-type. Nature of the assay: BLI; BLItz system, room temperature; biotinylated ligand (0.1 mg/ml) immobilised on a streptavidin biosensor; PBS with 0.05% Tween-20; 300 s association and 300 s dissociation. In general terms: Biolayer interferometry detects binding as a change in optical thickness at a sensor tip.
Assay [2] concerns the target biotinylated lysocin E derivative, natural type. The description is as above.

Take “recombinant human apolipoprotein A-I, wild type (from UniProt P02647 19-267) (natural protein)”: the Kd in assay [1] is 3.4 µM; in assay [2], 3.6 µM.

As usually defined, the Kd is the constant that tells how readily two partners part at equilibrium. The low end stands for higher affinity, the high end for lower affinity.
